These results are taken from article PMC5510004, “Recruitment and positioning determine the specific role of the XPF‐ERCC1 endonuclease in interstrand crosslink repair”.

Data set [1] deals with T1, XPF G314E;ERCC1 wild type (hsERCC1) (Xenopus laevis;Homo sapiens?, UniProt A0A8J0PXV9;P07992 1-897;1-297, G314E|).
T1 sequence 1: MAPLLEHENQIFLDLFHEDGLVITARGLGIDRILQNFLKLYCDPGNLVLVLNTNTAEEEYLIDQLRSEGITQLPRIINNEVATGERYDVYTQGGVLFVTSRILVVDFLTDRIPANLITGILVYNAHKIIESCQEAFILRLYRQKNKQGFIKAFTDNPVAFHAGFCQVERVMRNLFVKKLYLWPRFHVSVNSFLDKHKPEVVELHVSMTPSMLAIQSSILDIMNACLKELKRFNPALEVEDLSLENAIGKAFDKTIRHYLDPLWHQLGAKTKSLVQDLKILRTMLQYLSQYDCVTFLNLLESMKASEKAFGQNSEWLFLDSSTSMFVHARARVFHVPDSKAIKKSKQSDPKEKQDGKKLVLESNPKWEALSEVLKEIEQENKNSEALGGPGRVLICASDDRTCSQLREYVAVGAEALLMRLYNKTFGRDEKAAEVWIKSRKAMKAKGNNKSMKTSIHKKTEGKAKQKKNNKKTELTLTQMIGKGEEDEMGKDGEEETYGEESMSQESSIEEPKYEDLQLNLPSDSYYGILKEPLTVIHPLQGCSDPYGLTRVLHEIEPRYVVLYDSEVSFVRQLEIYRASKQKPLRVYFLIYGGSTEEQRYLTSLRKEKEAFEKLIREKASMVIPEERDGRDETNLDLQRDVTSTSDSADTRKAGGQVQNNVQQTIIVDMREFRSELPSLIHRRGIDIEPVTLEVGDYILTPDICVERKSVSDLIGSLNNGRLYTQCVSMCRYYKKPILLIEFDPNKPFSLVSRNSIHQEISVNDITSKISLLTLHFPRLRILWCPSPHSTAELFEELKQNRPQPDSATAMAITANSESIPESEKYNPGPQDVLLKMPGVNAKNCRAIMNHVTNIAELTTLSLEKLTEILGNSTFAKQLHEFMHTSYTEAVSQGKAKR
T1 sequence 2: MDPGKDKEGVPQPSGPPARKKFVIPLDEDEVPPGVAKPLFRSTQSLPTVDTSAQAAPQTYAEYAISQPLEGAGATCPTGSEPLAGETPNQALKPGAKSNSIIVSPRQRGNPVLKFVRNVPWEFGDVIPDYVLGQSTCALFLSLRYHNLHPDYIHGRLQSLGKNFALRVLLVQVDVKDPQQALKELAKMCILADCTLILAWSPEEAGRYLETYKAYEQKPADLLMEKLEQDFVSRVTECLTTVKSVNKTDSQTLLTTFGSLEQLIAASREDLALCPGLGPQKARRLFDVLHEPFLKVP
As to the kind of experiment: fluorescence anisotropy; 2 mM Ca2+; comparable to wild type; 25 mM Hepes pH 8.0, 15% glycerol, 0.1 mg/ml BSA, 2 mM CaCl2, 10 nM DNA, 1 h at room temperature. Particulars: protein: recombinant;recombinant; tags: FLAG;His; copies: 1;1; label: 5'-FAM on F1; three strands 1:1:1. A general note: Fluorescence polarisation rises when a labelled molecule tumbles more slowly, as on binding a larger partner.

The target of data set [2] is T2, XPF wild type (xlXPF);ERCC1 wild type (hsERCC1) (Xenopus laevis;Homo sapiens?, UniProt A0A8J0PXV9;P07992 1-897;1-297, |).
T2 sequence 1: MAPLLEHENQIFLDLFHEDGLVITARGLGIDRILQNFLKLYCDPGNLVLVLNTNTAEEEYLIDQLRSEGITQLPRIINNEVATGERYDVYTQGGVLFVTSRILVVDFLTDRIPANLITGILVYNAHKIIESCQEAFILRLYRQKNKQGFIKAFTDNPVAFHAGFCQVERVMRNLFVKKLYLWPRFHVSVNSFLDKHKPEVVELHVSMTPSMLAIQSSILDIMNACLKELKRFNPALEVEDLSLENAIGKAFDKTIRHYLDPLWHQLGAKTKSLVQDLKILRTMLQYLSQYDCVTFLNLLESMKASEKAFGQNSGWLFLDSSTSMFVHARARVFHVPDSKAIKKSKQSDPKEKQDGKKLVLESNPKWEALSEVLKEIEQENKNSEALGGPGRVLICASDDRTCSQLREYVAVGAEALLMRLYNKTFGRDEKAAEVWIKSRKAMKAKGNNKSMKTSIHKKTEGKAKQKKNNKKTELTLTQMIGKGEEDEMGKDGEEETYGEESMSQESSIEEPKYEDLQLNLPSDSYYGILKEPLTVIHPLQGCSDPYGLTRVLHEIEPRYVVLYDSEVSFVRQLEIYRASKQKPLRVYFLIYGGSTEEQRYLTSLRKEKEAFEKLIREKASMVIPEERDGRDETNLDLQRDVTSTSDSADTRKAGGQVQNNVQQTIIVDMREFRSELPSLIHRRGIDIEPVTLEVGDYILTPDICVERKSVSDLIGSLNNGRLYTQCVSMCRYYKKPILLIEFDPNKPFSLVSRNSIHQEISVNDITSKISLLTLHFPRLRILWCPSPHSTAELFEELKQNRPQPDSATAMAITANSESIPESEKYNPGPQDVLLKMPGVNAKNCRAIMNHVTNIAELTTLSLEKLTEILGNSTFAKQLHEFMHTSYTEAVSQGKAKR
T2 sequence 2: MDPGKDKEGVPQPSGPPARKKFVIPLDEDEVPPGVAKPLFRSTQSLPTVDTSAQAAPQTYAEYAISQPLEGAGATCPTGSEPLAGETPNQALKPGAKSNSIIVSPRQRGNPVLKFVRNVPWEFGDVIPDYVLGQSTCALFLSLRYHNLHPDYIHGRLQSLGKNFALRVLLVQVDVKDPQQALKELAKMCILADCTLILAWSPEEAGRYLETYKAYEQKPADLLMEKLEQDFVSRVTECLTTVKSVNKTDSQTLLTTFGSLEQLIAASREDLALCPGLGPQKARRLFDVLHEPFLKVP
As to the kind of experiment: fluorescence anisotropy; 2 mM Ca2+; 25 mM Hepes pH 8.0, 15% glycerol, 0.1 mg/ml BSA, 2 mM CaCl2, 10 nM DNA, 1 h at room temperature. To be noted: protein: recombinant;recombinant; tags: FLAG;His; copies: 1;1; label: 5'-FAM on F1; three strands 1:1:1.

B1: 3' flap DNA substrate (F1+F2+F3) (dsDNA)
DNA 1: CGCGATGCGGATCCAA
DNA 2: CCTAGACTTAAGAGGCCAGACTTGGATCCGCATCGC
DNA 3: GGCCTCTTAAGTCTAGG
With B1, the binding result in data set [1] and in data set [2] was “binds” in each case.
